Test results from US7572612B2, “Method of production of para-hydroxycinnamic acid using a thermostable TAL enzyme” (E.I. du Pont de Nemours and Company, priority 2006, dated 2009).

What was measured:
[1] = Whole cell TAL activity temperature profile; format: cell-based, E. coli
Method: A fermentation run was performed as in Example 6 for strain DPD5154. The TAL activity of the strain was measured in a cell-based assay at different temperatures. The fermentation cell paste was resuspended in water, and diluted to OD600 of 3.0. Formation of pHCA was monitored in a 1.0 ml reaction in a UV grade disposable cuvette (VWR) for three minutes at λ315 nm, 35° C. with 0.03 OD600 of DPD5154 cells, in 100 mM CAPS, pH10 with 10 mM tyrosine. The pH value of the CAPS buffer was adjusted according to the corresponding assay temperature, which was varied from 25° C. to 60° C. The TAL activity was calculated using the following equation based on the assumption that 1.0 OD600 of E. coli cells is equivalent to 0.33 g/L dry cell weight (dcw). The extinction coefficient of pHCA at pH 10 at 315 nm had previously been experimentally determined to be 16,800 M^−1 cm^−1. One unit of enzyme activity is defined as the formation of 1.0 μM of pHCA product per minute reaction. The total TAL Activity (μM/min)=Initial Slope (/min)×[1,000,000 (μM/M)/16,800 M^−1 cm^−1]=Slope (/min)×59.52 (μM)

[2] = Conversion of tyrosine to pHCA in 3 L Applikon BioReactors; format: cell-based, E. coli
Method: The following experiment was performed in an Applikon BioReactor (9.0 liter working volume) where pH and temperature of the reaction were controlled. Both strains DPD5154 and DPD5124 were tested. The E. coli DPD5154 (PcTAL) cells were produced by the protocol described in Example 6, with a final cell density of […]. In the case of E. coli DPD5124 (RgTAL) the inoculum was grown in a 2.0 L shake flask containing 500 ml of the following medium (in grams per liter) KH2PO4 (2.0 g/L), K2HPO4 (13.0 g/L), (NH4)2HPO4 […]), MgSO4.7H2O (1.0 g/L), yeast extract (2.0 g/L), Ferric Ammonium Citrate (0.1 g/L). The pH was adjusted to 7.0 and the medium steam sterilized. Glucose (30.0 g/L) and ampicillin (50 mg/L) were added post-sterilization. The culture was grown in 2 L flasks with 500 mL medium, at 35° C. to about OD550 of 2.0 and then the entire contents was used to inoculate the fermentor. The fermentor was controlled at 36° C., pH 6.8, with the dissolved oxygen (DO) tension of 25% controlled with cascade of agitation and air flow with agitation from 400 to 1000 rpm and airflow from 2 to 16 SLPM. The overhead pressure was 0.5. When the glucose level reached below 4.0 g/L a glucose feed program with 60% glucose (w/w) was initiated, consisting of: first 4 h at 0.36 g/min, next 12 h at 0.73 g/min and to the end of run at 0.56 g/min. When the culture reached an OD550 of 35, arabinose was added to final concentration of 0.5 g/L The fermentation was terminated 20 h after arabinose addition. The final cell density in the fermentation broth was an OD550 of 90 and the final volume was about 9 liter. The g dcw/L was determined assuming that 1.0 OD550 contained 0.33 g dcw/L:=30 g dcw/L.
The cells were harvested by centrifugation and stored as a frozen paste at −80° C. until use. Before use, the cell paste was thawed and suspended in the saline solution to about 10% w/v. The cell dry weight concentration was calculated from [cells wet weight]×[% solids] where [% solids] was determined after drying the cells in a vacuum oven, at 90° C. for >16 h.
The tyrosine used was AR grade (J. T. Baker). It was suspended in distilled, deionized water at 33% w/w concentration, homogenized in a blender and added to about 50 g/L final concentration. Reactions were conducted in 3 L Applikon BioReactors (Applikon, De Brauwweg 13, The Netherlands), with a 1-2 L working volume. The set points for the control systems were pH 9.9 with automatic addition of NaOH 25% w/v with agitation at 400 rpm. The bioconversion was typically done by adding the tyrosine suspension to the appropriate concentration, adjusting the pH and temperature to the determined set point, adding the cell suspension to the appropriate concentration, and DI water to the final volume.

[3] = 30 C., cell conc 6 g/L, reaction time 19 h
[4] = 35 C., cell conc 6 g/L, reaction time 15 h
[5] = 40 C., cell conc 6 g/L, reaction time 7 h
[6] = 43 C., cell conc 6 g/L, reaction time 6 h
[7] = 45 C., cell conc 2 g/L, reaction time 19 h
[8] = 45 C., cell conc 4 g/L, reaction time 10 h
[9] = 45 C., cell conc 6 g/L, reaction time 6 h
[10] = 48 C., cell conc 6 g/L, reaction time 6 h

B1: PcTAL: thermostable tyrosine ammonia lyase (PAL/TAL) enzyme from Phanerochaete chrysosporium, SEQ ID NO:1 (protein, listed as Phanerochaete chrysosporium)
chain: MPSRIDYYTSSGNGYAQSRKSSAIYPASASTGHAAPSTERKPELLDKFVEAYDELQSYREGKPVIVDGHNLSIPAVAATARFGAAVVLDENPETHERVLQSRRVIVDKVSTQRSVYGVSTGFGGSADTRTSDPLQLGHALLQHQHVGVLPTQTESPLPALPLGDPLATTSMPEAWVRGAILIRMNSLIRGHSGVRWELIEKMGELLRENITPLVPLRGSISASGDLSPLSYIAGTLIGSPAIRVFDGPASYGARRILPSNIALANHGVAPIPLSSKEHLGILNGTAFSASVGALALNEAVHLSLLAQVCTAMGTEAMIGAVGSFDAFIHDTARPHPGQVEVARNVRTLLEDSQMAVKAEDEVHIAEDEGELRQDRYPLRTAAQFLGPQIEDILSAHETVTLECNSTTDNPLIDGETGTVHHGGNFQAMAVTNAMEKTRLAIHHIGKLLFAQATELINPMMNRGLPPNLAATDPSHNYFAKGVDIHLAAYVGELGFLASPVSSHIQSAEMHNQAVNSLALVSARYTISALDVLSLLTAAYLYVLCQALDLRAMHNDLQSSLSAIVRELLPKHFPSAAKRADALLPILERTIFRALNSSSSADCKARMVSVAASTTTPLVDFLSADAALASELANITAFRTELATRAADALTTLRTQYLEGARGAAPASKYLGKTRPVYEFVRVTLNVPMHGRENLHNFEMGPGVEDGIIGNNISTIYEAIRDGKMQNVVMQLVKSIKA
Q: Which results are given for B1?
A: activity at 60° C. relative to that at 25° C. in whole cells [1]: about 6 fold; Prod g/L-h [2, 3]: 2.20 g/L-h; Prod g/g-h [2, 3]: 0.37 g/g-h; Prod g/L-h [2, 4]: 2.79 g/L-h; Prod g/g-h [2, 4]: 0.46 g/g-h; Prod g/L-h [2, 5]: 5.94 g/L-h; Prod g/g-h [2, 5]: 0.99 g/g-h; Prod g/L-h [2, 6]: 6.90 g/L-h; Prod g/g-h [2, 6]: 1.15 g/g-h; Prod g/L-h [2, 7]: 2.22 g/L-h; Prod g/g-h [2, 7]: 1.11 g/g-h; Prod g/L-h [2, 8]: 4.18 g/L-h; Prod g/g-h [2, 8]: 1.05 g/g-h; Prod g/L-h [2, 9]: 6.83 g/L-h; Prod g/g-h [2, 9]: 1.14 g/g-h; Prod g/L-h [2, 10]: 7.00 g/L-h; Prod g/g-h [2, 10]: 1.17 g/g-h
